# According to patent publication US20080014635A1:
# Assays:
# [1] = target: wild-type TNFrED-agglutinin fusion displayed on the surface of S. cerevisiae BJ2168 (human); assay: saturation binding of [125I]TNF-α to yeast displaying wild-type TNFrED, best-fit values box; axis 'Bound' has no unit [A]
# [2] = target: mutant clone 6 (TNFrED H23P + S46I)-agglutinin fusion displayed on yeast (human); assay: saturation binding of [125I]TNF-α to yeast displaying mutant clone 6, best-fit values box; the box prints no unit, the concentration axis is TNF-α [nM] [B]
# Sequence of mutant clone 6 (TNFrED H23P + S46I)-agglutinin fusion displayed on yeast (human) (P20840 other isoform, or with tags, fused parts or gaps H23P S46I H23P S46I, form in doubt): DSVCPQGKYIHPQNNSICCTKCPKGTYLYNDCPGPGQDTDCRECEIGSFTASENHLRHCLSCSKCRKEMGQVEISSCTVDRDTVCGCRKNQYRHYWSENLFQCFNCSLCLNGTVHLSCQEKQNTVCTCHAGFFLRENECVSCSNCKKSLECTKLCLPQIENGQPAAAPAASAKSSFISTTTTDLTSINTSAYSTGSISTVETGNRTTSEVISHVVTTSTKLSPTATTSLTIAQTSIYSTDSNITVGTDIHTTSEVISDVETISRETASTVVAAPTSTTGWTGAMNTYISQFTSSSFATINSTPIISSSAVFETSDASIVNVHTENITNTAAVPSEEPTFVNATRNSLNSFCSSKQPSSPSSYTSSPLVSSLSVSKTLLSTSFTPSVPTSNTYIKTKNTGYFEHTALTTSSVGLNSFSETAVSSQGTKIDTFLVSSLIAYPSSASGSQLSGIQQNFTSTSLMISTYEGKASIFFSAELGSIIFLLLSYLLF
# [3] = target: mutant clone 6 (TNFrED H23P + S46I)-agglutinin fusion displayed on yeast (human); assay: saturation binding of [125I]TNF-α to yeast displaying mutant clone 6, best-fit values box; axis 'Bound' has no unit [B]
# [4] = target: wild-type TNFrED-agglutinin fusion displayed on the surface of S. cerevisiae BJ2168 (human); assay: flow cytometry of yeast, biotinylated hTNF-α detected with FITC-avidin (FL1-H); vector-only pYES2 yeast in the left panel: Left Half= 98.58% [B]
# [5] = target: wild-type TNFrED-agglutinin fusion displayed on the surface of S. cerevisiae BJ2168 (human); assay: saturation binding of [125I]TNF-α to yeast displaying wild-type TNFrED, best-fit values box; the box prints no unit, the concentration axis is TNF-α [nM] [A]
# [6] = target: wild-type TNFrED-agglutinin fusion displayed on the surface of S. cerevisiae BJ2168 (human); assay: flow cytometry of yeast, biotinylated hTNF-α detected with FITC-avidin (FL1-H); gate line at FL1-H just below 10^1; vector-only pYES2 yeast in the left panel: Right Half= 1.42% [B]
# [7] = target: mutant clone 11 (TNFrED S76P)-agglutinin fusion displayed on yeast (human); assay: saturation binding of [125I]TNF-α to yeast displaying mutant clone 11, best-fit values box; axis 'Bound' has no unit [C]
# Sequence of mutant clone 11 (TNFrED S76P)-agglutinin fusion displayed on yeast (human) (P20840 other isoform, or with tags, fused parts or gaps S76P S76P, form in doubt): as the sequence (P20840 other isoform, or with tags, fused parts or gaps H23P S46I H23P S46I, form in doubt) above, with P23H, I46S, S76P counted along it
# Sequence of wild-type TNFrED-agglutinin fusion displayed on the surface of S. cerevisiae BJ2168 (human) (P20840 other isoform, or with tags, fused parts or gaps, form in doubt): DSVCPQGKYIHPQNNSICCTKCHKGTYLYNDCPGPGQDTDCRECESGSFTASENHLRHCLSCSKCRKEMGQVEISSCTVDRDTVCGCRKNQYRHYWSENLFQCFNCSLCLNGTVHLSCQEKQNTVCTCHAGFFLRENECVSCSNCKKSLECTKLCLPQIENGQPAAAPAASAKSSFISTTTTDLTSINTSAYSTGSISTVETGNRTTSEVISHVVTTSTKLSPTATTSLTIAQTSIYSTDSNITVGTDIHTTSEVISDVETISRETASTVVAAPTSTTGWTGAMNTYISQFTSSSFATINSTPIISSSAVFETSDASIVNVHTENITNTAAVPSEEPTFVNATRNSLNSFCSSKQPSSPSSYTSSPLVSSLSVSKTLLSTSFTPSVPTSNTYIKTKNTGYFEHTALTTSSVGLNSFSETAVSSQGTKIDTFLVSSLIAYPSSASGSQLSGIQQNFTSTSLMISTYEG
substance,measurement,setting,value
human TNF-α (hTNF-α) (from UniProt P01375 77-233) (ligand),BMAX,[1],0.0645
same,Kd,[2],1.71 nM
same,BMAX,[3],0.334
same,Left Half (percent of yeast cells left of the FL1-H gate),[4],89.1%
same,Kd,[5],2.04 nM
same,Right Half (percent of yeast cells right of the FL1-H gate),[6],10.9%
same,BMAX,[7],0.127
